Reference: patent publication US20180118802A1 (published 2018)

T1: RAP-GDNF (UniProt P30533 35-353; P39905 78-211, limits assumed)
T1 construct: also called RAP-GDNF fusion
T1 sequence (looked up): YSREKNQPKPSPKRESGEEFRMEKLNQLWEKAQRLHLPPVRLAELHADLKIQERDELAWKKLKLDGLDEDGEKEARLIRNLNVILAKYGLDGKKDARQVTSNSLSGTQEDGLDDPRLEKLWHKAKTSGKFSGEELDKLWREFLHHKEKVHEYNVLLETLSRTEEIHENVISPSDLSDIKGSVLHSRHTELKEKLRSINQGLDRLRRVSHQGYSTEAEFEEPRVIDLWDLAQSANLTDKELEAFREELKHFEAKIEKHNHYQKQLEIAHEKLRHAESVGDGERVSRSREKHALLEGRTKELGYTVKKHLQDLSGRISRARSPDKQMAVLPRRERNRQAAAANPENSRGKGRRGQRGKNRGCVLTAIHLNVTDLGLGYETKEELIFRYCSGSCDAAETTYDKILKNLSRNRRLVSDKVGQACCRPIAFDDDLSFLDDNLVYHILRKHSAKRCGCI

T2: RAP d3 (human, UniProt P30533 235-353)
T2 construct: also called wild-type RAP d3
T2 sequence: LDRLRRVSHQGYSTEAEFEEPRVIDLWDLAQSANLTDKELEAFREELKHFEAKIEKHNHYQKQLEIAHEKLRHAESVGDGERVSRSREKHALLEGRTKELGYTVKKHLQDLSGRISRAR

B1: GFRα-1 (receptor)
chain: DRLDCVKASDQCLKEQSCSTKYRTLRQCVAGKETNFSLASGLEAKDECRSAMEALKQKSLYNCRCKRGMKKEKNCLRIYWSMYQSLQGNDLLEDSPYEPVNSRLSDIFRVVPFISDVFQQVEHIPKGNNCLDAAKACNLDDICKKYRSAYITPCTTSVSNDVCNRRKCHKALRQFFDKVPAKHSYGMLFCSCRDIACTERRRQTIVPVCSYEEREKPNCLNLQDSCKTNYICRSRLADFFTNCQPESRSVSSCLKENYADCLLAYSGLIGTVMTPNYIDSSSLSVAPWCDCSNSGNDLEECLKFLNFFKDNTCLKNAIQAFGNGSDVTVWQPAFPVQTTTATTTTALRVKNKPLGPAGSENEIPTHVLPPCANLQAQKLKSNVSGNTHLCISNGNYEKEGLGASS
B2: LRP2 CR89 (receptor)
chain: not shown
notes: domain: CR89; also called YVWR; not shown: N-terminal hexahistidine and S-peptide of pET30(+)a
B3: LRP2 CR89 R1088D (receptor, not shown: small tags and cut ends)
chain: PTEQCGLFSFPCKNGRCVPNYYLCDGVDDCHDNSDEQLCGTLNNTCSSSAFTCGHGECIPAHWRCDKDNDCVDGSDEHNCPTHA
notes: also called YVWD
B4: RAP d3 E217K (ligand, not shown: small tags and cut ends)
chain: LDRLRRVSHQGYSTEAKFEEPRVIDLWDLAQSANLTDKELEAFREELKHFEAKIEKHNHYQKQLEIAHEKLRHAESVGDGERVSRSREKHALLEGRTKELGYTVKKHLQDLSGRISRAR
notes: Forward mutant of RAP d3; also called RAP E217K
B5: RAP d3 E251K, K270E (ligand, not shown: small tags and cut ends)
chain: LDRLRRVSHQGYSTEAEFEEPRVIDLWDLAQSANLTDKELEAFREELKHFKAKIEKHNHYQKQLEIAHEELRHAESVGDGERVSRSREKHALLEGRTKELGYTVKKHLQDLSGRISRAR
notes: Forward mutant of RAP d3; also called RAP E251K, K270E
B6: RAP d3 E251K (ligand, not shown: small tags and cut ends)
chain: LDRLRRVSHQGYSTEAEFEEPRVIDLWDLAQSANLTDKELEAFREELKHFKAKIEKHNHYQKQLEIAHEKLRHAESVGDGERVSRSREKHALLEGRTKELGYTVKKHLQDLSGRISRAR
notes: Forward mutant of RAP d3; also called RAP E251K
B7: MegaRAP1 d3 K251E (ligand, not shown: small tags and cut ends)
chain: LDRLRRVSHQGYTTEAKFEEPRVIDLWDLAQSANLTDKELEAFREELKYFEAKIEAHNHYQKQLEIAHEELRHAESVGDGERVSRSREKHALLEGRTKELGYTVKKHLQDLSGRISRAR
notes: Revertant of MegaRAP1 d3; also called MegaRAP1 K251E
B8: LRP2 CR89 V1047D R1088D (receptor, not shown: small tags and cut ends)
chain: PTEQCGLFSFPCKNGRCVPNYYLCDGDDDCHDNSDEQLCGTLNNTCSSSAFTCGHGECIPAHWRCDKDNDCVDGSDEHNCPTHA
notes: also called YDWD
B9: RAP d3 K256A, K270E (ligand, not shown: small tags and cut ends)
chain: LDRLRRVSHQGYSTEAEFEEPRVIDLWDLAQSANLTDKELEAFREELKHFEAKIEAHNHYQKQLEIAHEELRHAESVGDGERVSRSREKHALLEGRTKELGYTVKKHLQDLSGRISRAR
notes: Forward mutant of RAP d3; also called RAP K256A, K270E
B10: RAP d3 H249Y (ligand, not shown: small tags and cut ends)
chain: LDRLRRVSHQGYSTEAEFEEPRVIDLWDLAQSANLTDKELEAFREELKYFEAKIEKHNHYQKQLEIAHEKLRHAESVGDGERVSRSREKHALLEGRTKELGYTVKKHLQDLSGRISRAR
notes: Forward mutant of RAP d3; also called RAP H249Y
B11: RAP d3 K270E (ligand, not shown: small tags and cut ends)
chain: LDRLRRVSHQGYSTEAEFEEPRVIDLWDLAQSANLTDKELEAFREELKHFEAKIEKHNHYQKQLEIAHEELRHAESVGDGERVSRSREKHALLEGRTKELGYTVKKHLQDLSGRISRAR
notes: Forward mutant of RAP d3; also called RAP K270E
B12: LRP2 CR89 Y1042W (receptor, not shown: small tags and cut ends)
chain: PTEQCGLFSFPCKNGRCVPNYWLCDGVDDCHDNSDEQLCGTLNNTCSSSAFTCGHGECIPAHWRCDKRNDCVDGSDEHNCPTHA
notes: also called WVWR
B13: MegaRAP1 d3 A256K, E270K (ligand, not shown: small tags and cut ends)
chain: LDRLRRVSHQGYTTEAKFEEPRVIDLWDLAQSANLTDKELEAFREELKYFKAKIEKHNHYQKQLEIAHEKLRHAESVGDGERVSRSREKHALLEGRTKELGYTVKKHLQDLSGRISRAR
notes: Double revertant of MegaRAP1 d3; also called MegaRAP1 A256K, E270K
B14: MegaRAP1 d3 E270K (ligand, not shown: small tags and cut ends)
chain: LDRLRRVSHQGYTTEAKFEEPRVIDLWDLAQSANLTDKELEAFREELKYFKAKIEAHNHYQKQLEIAHEKLRHAESVGDGERVSRSREKHALLEGRTKELGYTVKKHLQDLSGRISRAR
notes: Revertant of MegaRAP1 d3; also called MegaRAP1 E270K
B15: MegaRAP1 d3 A256K (ligand, not shown: small tags and cut ends)
chain: LDRLRRVSHQGYTTEAKFEEPRVIDLWDLAQSANLTDKELEAFREELKYFKAKIEKHNHYQKQLEIAHEELRHAESVGDGERVSRSREKHALLEGRTKELGYTVKKHLQDLSGRISRAR
notes: Revertant of MegaRAP1 d3; also called MegaRAP1 A256K
B16: LRP2 CR89 V1047D (receptor, not shown: small tags and cut ends)
chain: PTEQCGLFSFPCKNGRCVPNYYLCDGDDDCHDNSDEQLCGTLNNTCSSSAFTCGHGECIPAHWRCDKRNDCVDGSDEHNCPTHA
notes: also called YDWR

Legend:
RAP-GDNF = biological target: T1, RAP-GDNF; assay: solid-phase assay, RAP-GDNF coated, serial dilutions of GFRα-1 (FIG. 12)
RAP d3 [1] = biological target: T2, RAP d3; assay: solid-phase binding assay, CR protein coated, anti-RAP detection
Text: (§1) Alternatively, the affinity differences between MegaRAP I d3 and MegaRAP1 d3 E270K may have been insufficient to alloW the latter to predominate upon iterative panning. A double revertant, T213S, E270K, had binding behavior that was not distinguishable from MegaRAP1 d3 in our assays. […] The binding behavior of the K251E, E270K double revertant implies a strong dependence of the affinity of MegaRAP1 d3 for LRP2 CR89 on the E251K mutation. […] Therefore, the K256A mutation in MegaRAP1 d3 is a crucial determinant of the ability of this variant to discriminate between the two receptor fragments, exerting its effect by negatively impacting affinity for LRP1 CR3-5 while at the same time improving affinity for LRP2 CR89.

RAP d3 [2] = biological target: T2, RAP d3; assay: as above; remark: listed apart in the source
Method: Solid phase binding assays—Purified, refolded CR protein (1 μg) was bound to Nunc Maxisorp™ 96-well plates in TBS pH 8 supplemented with 5 mM CaCl₂ (TBSC) overnight at 4° C. Wells were washed with TBSC and then blocked with TBSC containing 2% bovine serum albumin (BSA). RAP ligands were then incubated with the immobilized receptor at a range of concentrations for 2 hours in the above blocking buffer supplemented with 0.05% Tween-20 at room temperature. Control wells contained no added ligand. As an additional control, to determine whether the absence of calcium affected binding, 10 mM EGTA was included in the incubation medium for some samples. Wells were washed with TBSTC and bound ligands detected with polyclonal anti-RAP (BP41/42, 1:1,000, BioMarin). Excess primary antibody was removed and wells washed before incubation with the secondary antibody, HRP-conjugated goat anti rabbit IgG (Bio-Rad). After washing, TMB substrate solutions (Bio-Rad) were added to detect HRP. Color development was stopped with 1N HCl. Absorption at 450 nm was measured with a microplate spectrophotometer (Molecular Devices). Data were plotted and Kd values derived by non-linear regression with the assumption of single-site binding (GraphPad Prism).
One premise of this work was that amino acids at A, C, A′ and C′ within the calcium-binding loops of a CR pair were key determinants of binding affinity for RAP and would be similarly important for binding of RAP variants. To test this idea, mutant LRP2 CR89 were prepared in which the native, non-canonical residues at these positions were sequentially substituted with the non-native, canonical residues. As defined above, the A, C, A′, C′ string for LRP2 CR89 is YVWR. Mutants included LRP2 CR89 Y1042W (WVWR), LRP2 CR89 V1047D (YDWR), LRP2 CR89 R1088D (YVWD), LRP2 CR89 V1047D R1088D (YDWD), LRP2 CR89 Y1042W V1047D R1088D (WDWD), LRP2 CR89 Y1042W V1047D (WDWR), LRP2 CR89 Y1042W R1088D (WVWD). Binding to both RAP d3 and MegaRAP1 d3 were measured for each LRP2 CR89 mutant by solid-phase assay.

LRP2 CR89 [3] = biological target: B2; assay: as above
Method: (§2) Wells were washed with TBSTC and bound ligands detected with polyclonal anti-RAP (BP41/42, 1:1,000, BioMarin). Excess primary antibody was removed and wells washed before incubation with the secondary antibody, HRP-conjugated goat anti rabbit IgG (Bio-Rad). After washing, TMB substrate solutions (Bio-Rad) were added to detect HRP. Color development was stopped with 1N HCl. Absorption at 450 nm was measured with a microplate spectrophotometer (Molecular Devices). Data were plotted and Kd values derived by non-linear regression with the assumption of single-site binding (GraphPad Prism).
(§3) Next, the binding of RAP d3 and MegaRAP1 d3 proteins to LRP1 CR3-5 and LRP2 CR89 was assessed. […] In all cases, 10 mM EGTA prevented binding of both RAP d3 and MegaRAP1 d3 to CR proteins. Since calcium was the only divalent metal ion present in the binding buffer, this observation is consistent with both RAP d3 and MegaRAP1 d3 binding to calcium-loaded CR pairs. […] Therefore, wild-type RAP d3 and MegaRAP1 d3 have inverted binding preferences for these two receptor fragments.
Target sequence in this assay (P98164 1025-1102): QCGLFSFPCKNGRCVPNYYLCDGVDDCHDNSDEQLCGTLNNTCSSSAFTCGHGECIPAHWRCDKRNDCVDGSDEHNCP

LRP2 CR89 [4] = biological target: B2; assay: as above; remark: listed apart in the source
Text: as §1
Target sequence in this assay (P98164 1025-1102): as above

LRP1 CR3-5 = biological target: T3, LRP1 CR3-5 (human, UniProt Q07954 852-973); assay: as above
T3 construct: range 852-973; not shown: N-terminal hexahistidine and S-peptide of pET30(+)a
Method: as §2, §3

T3 sequence (Q07954 852-973, form in doubt): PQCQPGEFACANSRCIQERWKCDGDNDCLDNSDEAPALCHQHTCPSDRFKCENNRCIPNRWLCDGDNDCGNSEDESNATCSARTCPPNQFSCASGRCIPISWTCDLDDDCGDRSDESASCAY

Row | Binder | binding result (LRP2 CR89 [3]) | also measured
1 | B1 | – | Kd (RAP-GDNF): ~5 ng/mL
2 | B2 | – | Kd (RAP d3 [1]): > 0.3 µM
3 | B3 | – | binding result (RAP d3 [2]): no binding
4 | B4 | no binding | –
5 | B5 | no binding | –
6 | B6 | no binding | –
7 | B7 | no binding | –
8 | B8 | – | binding result (RAP d3 [2]): no binding
9 | B9 | no binding | –
10 | B10 | no binding | –
11 | B11 | no binding | –
12 | B12 | – | binding result (RAP d3 [2]): no binding
13 | B13 | – | fold loss of affinity (LRP2 CR89 [4]): 2 fold
14 | B14 | – | % max (LRP1 CR3-5): 85%
15 | B15 | no binding | –
16 | B16 | – | binding result (RAP d3 [2]): no binding
